Measured values: patent publication US20250388638A1, “COMPOSITIONS AND METHODS FOR ORAL DELIVERY” (IMAGINE PHARMA LLC, priority 2021, published 2025)
Like-named read-outs stand apart in the source and are kept apart here.

Experiments:
Caco-2 cells [1] = assay: Caco-2 uptake assay with fluorescently labeled polypeptide constructs; conditions: for uptake (% of fluorescence remaining): Caco-2 uptake assay of Example 1
Source text: (§1) (See Example 1) Caco-2 cells may be cultured in the presence of a polypeptide construct comprising a polypeptide and a heterologous polypeptide and analyzed using a fluorescent assay to determine the percentage of uptake of the polypeptide construct into the cells.
(§2) Polypeptide conjugates may be studied in vitro using Caco-2 cells, to assess uptake and bioactivity of the therapeutic polypeptide.
(§3) To mimic the steric conditions in the intestine in vivo, Caco-2 cells may be cultured on permeable filter inserts (such as available from Becton Dickenson, Corning, Costar).
(§4) Various polypeptide constructs were labeled with Alexa Fluor™ Labeling Kits (ThermoFisher), to generate fluorescently labeled polypeptide constructs. Caco-2 cells were seeded in 12-well plates and incubated for 4 hours with the labeled polypeptides at concentrations ranging from 2-10 ug/mL. Following incubation, the plates were read on a Tecan Infinite M Nano+ and washed gently several times with PBS, then given fresh media, and the plates were re-read. The % of fluorescence remaining in the dish represents the relative amount of uptake of polypeptide construct compared to the amount originally applied to the cells.

Caco-2 cells [2] = tested on: Caco-2 cells
Source text: as §1, §2, §3, §4

[3] = tested on: glucose-stimulated islets; assay: Inhibition of insulin secretion from glucose-stimulated islets (insulin ELISA); type: cell-based, human
Description: To determine if the polypeptide constructs comprising a polypeptide having an amino acid sequence identity according to SEQ ID NO:49 or 50 are biologically active following administration (PO), the ability of PCT-OCT to inhibit insulin secretion from glucose-stimulated islets was tested. Triplicates of 25 human islets (from a donor pancreas procured from an IIDP-approved islet center) were plated in a 96-well plate containing 100 μl of CMRL islet media (such as available from MediaTech). The islets were pre-incubated with either 100 μl (50%) serum (serum was collected from pancreas donor), 100 μl (50%) serum+PT-OCT, or 100 μl (50%) serum+PT-OCT that was exposed to thrombin for 45 minutes to cleave the polypeptide sequence from the therapeutic octapeptide of the polypeptide construct. Following a pre-incubation, the media and serum was removed and replaced with KREB's buffer solution containing 16.7 mM glucose, and incubated for an additional 30 minutes, at which point the KREB's buffer was collected. Insulin concentrations of the supernatant was measured using commercially available ELISA kits (such as available from Abcam). […] (See FIG. 19)

[4] = Blood levels of polypeptide fragment after PO administration of PT-OCT (FIG. 19); type: in vivo, Wistar rats; conditions: PO 600 μg/animal; 0, 3 and 5 hours
Description: Blood samples were taken from the animals at 0, 3 and 5 hours post administration.

blood glucose levels = assay: Blood glucose levels after PO administration of GLP-1 agonist constructs; type: in vivo, Sprague Dawley rats; conditions: for blood glucose level: 600 ug PO
Source text: GLP-1 agonists, such as exenatide and liraglutide are desirable candidates for formulation as an oral dose therapeutic. To test if a polypeptide according to SEQ ID 1-40, when linked to a GLP-1 agonist as a polypeptide construct, facilitates the transport of GLP-1 agonists from the stomach to the blood, following oral administration. The amino acid sequences for exenatide and liraglutide were used to clone the sequences behind (downstream) of a polypeptide comprising an amino acid sequence according to SEQ ID NO 1, in order to generate, using an expression vector system, peptide constructs comprising an amino acid sequence according to SEQ ID NOs: 42,44 (referred to in the figures as “PT-GA1” and “PT-GA2”, respectively). Also, generated was a polypeptide construct according to SEQ ID NO:46 (“PT-GA2B”), comprised of the liraglutide sequence flanked by a polypeptide according to SEQ ID NO 1 on both the carboxy and amino terminal end of the liraglutide sequence. […] (See FIG. 11) To test efficacy and bioavailability in vivo, Sprague Dawley rats were administered (PO) 600 ug of the compositions comprising polypeptide constructs selected from PT-GA1, PT-GA2 or PT-GA2B, blood was drawn at 0, 4, and 6 hrs. post-treatment, and blood glucose levels were measured. Following treatment, the blood glucose levels of the PT-GA1 treated animals went from 107 mg/dl at 0 hrs to 118 mg/dL at 4 hrs and dropped to 87.5 mg/dl at 6 hrs. post treatment, while the PT-GA2 and PT-GA2B were 98 mg/dl, 126, 111 mg/dL; and 102 mg/dL, 105 mg/dL, 104 mg/dl respectively.

| Molecule | uptake (% of fluorescence remaining) (Caco-2 cells [1]) | blood glucose level (blood glucose levels; 0 hrs) | blood glucose level (blood glucose levels; 4 hrs post-treatment) | blood glucose level (blood glucose levels; 6 hrs post-treatment) | other results |
| --- | --- | --- | --- | --- | --- |
| H-Met-Ala-Asp-Asp-Ala-Gly-Ala-Ala-Gly-Gly-Pro-Gly-Gly-Pro-Gly-Gly-Pro-Gly-Met-Gly-Asn-Arg-Gly-Gly-Phe-Arg-Gly-Gly-Phe-Gly-Ser-Gly-Ile-Arg-Gly-Arg-Gly-Arg-Gly-Arg-Gly-Arg-Gly-Arg-Gly-Arg-Gly-Arg-Gly-Nle (triazol-propionyl-D-Phe-Cys-Phe-D-Tru-Lys-Thr-Cys-Thr-ol)-OH [SEQ ID 50] | – | – | – | – | polypeptide constructs administered to Caco-2 cells taken up (Caco-2 cells [1]; in one example, PT-OCT fusion and PT-OCT click side-by-side): approximately 38%; uptake by Caco-2 cells / targeted delivery (in words) (Caco-2 cells [2]): taken up by Caco-2 cells; relative insulin secretion by glucose-stimulated islet cells, compared to control (in words) [3]: reduction; decrease of insulin secretion of glucose-stimulated islets ([3]; human islets, 50% serum pre-incubation, 16.7 mM glucose): 46%; levels of polypeptide fragment according to SEQ ID 53 in blood (in words) [4]: increasing levels |
| MADDAGAAGGPGGPGGPGMGNRGGFRGGFGSGIRGRGRGRGRGRGRGRGAFCFWKTCT [SEQ ID 49] | – | – | – | – | polypeptide constructs administered to Caco-2 cells taken up (Caco-2 cells [2]): approximately 38% |
| MADDAGAAGGPGGPGGPGMGNRGGFRGGFGSGIRGRGRGRGRGRGRGRGAHAEGTFTSDVSSYLEGQAAKEFIAWLVRGRG (protein) MADDAGAAGGPGGPGGPGMGNRGGFRGGFGSGIRGRGRGRGRGRGRGRGAHAEGTFTSDVSSYLEGQAAKEFIAWLVRGRG | 31.4% | 98 mg/dL | 126 mg/dL | 111 mg/dL | blood glucose levels following oral administration (in words) (blood glucose levels; 600 μg in PBS): decrease in blood glucose levels |
| MADDAGAAGGPGGPGGPGMGNRGGFRGGFGSGIRGRGRGRGRGRGRGRGAHAEGTFTSDVSSYLEGQAAKEFIAWLVRGRGMADDAGAAGGPGGPGGPGMGNRGGFRGGFGSGIRGRGRGRGRGRGRGRGA (protein) MADDAGAAGGPGGPGGPGMGNRGGFRGGFGSGIRGRGRGRGRGRGRGRGAHAEGTFTSDVSSYLEGQAAKEFIAWLVRGRGMADDAGAAGGPGGPGGPGMGNRGGFRGGFGSGIRGRGRGRGRGRGRGRGA | 29.4% | 102 mg/dL | 105 mg/dL | 104 mg/dL | – |
